Assay [1] concerns eye pain (ocular neuropathic pain) model induced by benzalkonium chloride in mice. Kind of assay: Eye pain model induced by benzalkonium chloride in mice, scratching behavior test. It counts as in vivo, mouse. The note with it: eye drops TID, 30 μg/ml, 10 μL (0.3 μg/eye/each time), after 2 days of treatment, 2M NaCl challenge, vs model group. The protocol: C57BL/6JNifdc mice were used in the experiment. Briefly, each of the mice was fixed with one hand, with one eye prop opened with the other hand (and fixed with another lab technician). The modeling drug, i.e., 0.1% benzalkonium chloride was dripped into one eye (twice a day (9:00, 17:00), 10 μL each time) and maintained for 30 seconds. The operation was repeated for six days.
In order to evaluate the pathological changes at the front of the mice's eyes, slit lamp photos were taken on the third day since the beginning of modeling. According to the photographic results, the mice's eyes were scored from three viewing angles, including corneal opacity (0: clear, 1: visible opacity, 2: difficult to find, 3: pupil invisible), conjunctival edema (0: absent, 1: slight edema, 2: edema, 3: severe edema) and congestion (0: absent, 1: slight congestion, 2: congestion, 3: severe congestion, 4: hemorrhage), to access and evaluate the damages at the front of the mice's eyes. The mice were then randomized into groups. […]
Scratching behavior test: The eyes were administered for two consecutive days. […] After acting for 5 seconds, the mice were released back into the cage, and the numbers of wipes over the eyes within 30 seconds were counted.

The subject of assay [2] is chemotherapy-induced peripheral neuropathy model induced by cisplatin in mice. Kind of assay: Cancer pain associated with CIPN model induced by cisplatin in mice, mechanical allodynia test. It counts as in vivo, mouse. The following applies: C57BL/6 mice; for pain thresholds (50% PWT) of treatment groups vs model group, preventive effect: 15 mg/kg i.p. qd or bid in parallel with cisplatin. The procedure: The experiments in this Example were divided into two parts. In the first part (Part I), the administration of SEQ ID NO: 29 was performed in parallel with modeling to explore the preventive effect of the polypeptide of the present disclosure on cancer pain associated with CIPN, in particular CIPN induced by cisplatin. In the second part (Part II), after elution of SEQ ID NO: 29 from the mice's bodies, mechanical allodynia tests were performed on the mice to confirm that the animals still had the cancer pain associated with CIPN, and to explore the therapeutic effect of the polypeptide of the present disclosure on cancer pain associated with CIPN after modeling.
44 male C57BL/6 mice weighting 20 to 25 g were randomly divided into 4 groups, with 8 mice in the control group (Group 1, administered with vehicle (normal saline)), 12 mice in the model group (Group 2, administered with vehicle (normal saline) and cisplatin (2.3 mg/kg, i.p., qd)), 12 mice in the treatment group (qd) (Group 3, administered with SEQ ID NO: 29 (15 mg/kg, i.p., qd) and cisplatin (2.3 mg/kg, i.p., qd)) and 12 mice in the treatment group (bid) (Group 4, administered with SEQ ID NO: 29 (15 mg/kg, i.p., bid) and cisplatin (2.3 mg/kg, i.p., qd)).
Administration of SEQ ID NO: 29 was performed on scheduled dates. Briefly, SEQ ID NO: 29 was administered qd or bid by intraperitoneal injection on each day from Day 1 to Day 11, followed by a washing-out period ranging from Day 12 to Day 23. Afterwards, the administration of SEQ ID NO: 29 was resumed on the basis of the same regimen as above, lasting from Day 24 to Day 30.
The mice were subjected to mechanical allodynia tests 0 h before administration and 2 h after the first administration of the test articles (normal saline or SEQ ID NO: 29) according to the method as recited in Example 1 on Day 6, Day 10, Day 23 and Day 30, respectively.

In another assay the test system is SNL pain model in rats. Kind of assay: SNL (spinal nerve ligation) pain model in rats, mechanical allodynia test. It counts as in vivo, rat. The following applies: SD rats, 1 h after administration. The protocol: A summary of the method for inducing pain model in rats by means of spinal nerve ligation is provided hereinafter. Briefly, male SD rats were anesthetized with Zoletil R 50+xylazine hydrochloride (20 mg/kg+8 mg/kg, intraperitoneal injection). The surgical areas on the waist regions of the animals were shaved, and the skin was disinfected with iodophor and 70% v/v ethanol for three times. The left spinal nerves L5 and L6 of the animals were isolated, tightly ligated with 6-0 silk suture, and the wounds were sutured.
On the 11th day post operation, the animals were acclimated to the experimental environment, 15 minutes/day, for 3 consecutive days.
Briefly, after SNL modeling, 24 animals were randomly divided into 3 groups (Groups 2, 3 and 4, N=8/group). Group 1 (a Sham group, for which the 10 animals received essentially the same operation procedure as other groups but their left spinal nerves L5 and L6 were neither isolated nor ligated) was used as the control group. The test articles were administrated to the animals according to the protocol shown in Table 5, and mechanical allodynia tests were respectively performed 1h after administration according to the method as recited in Example 1.
Briefly, after SNL modeling, 30 animals were randomly divided into 3 groups (Group 1, N=6/group; Groups 2 and 3, N=12/group). Various polypeptides of the present disclosure were administered to the animals from Groups 2 and 3, and the animals were subjected to mechanical allodynia tests 1 h after administration according to the method as recited in Example 1.

B1: SEQ ID NO: 29: exemplary polypeptide of the present disclosure; artificial polypeptide of formula (I) X-Y (protein)
chain: SEKKQPVDLGLLEEDDEFEEFPAEDWAGLDEDEDAHVWEDNWDDDNVEDDFSNQLRATVLLMILVAETPYGAYVLHQKGRMASAFLAA
Turning to B1, the “numbers of wipes over the eyes within 30 seconds” value in assay [1] is given as “significantly decreased numbers of wiping over the eyes (P<0.01)”. Besides, the “pain thresholds (50% PWT) of treatment groups, therapeutic effect” value in assay [2] (15 mg/kg i.p. qd or bid Day 24 to Day 30, Day 30 vs Day 23) is given as “significantly increased”. For the same molecule, the “pain thresholds (50% PWT) of treatment groups vs model group, preventive effect” value in assay [2] (Day 6) and in assay [2] (Day 10) was “significantly higher than those of the mice from the model group” each time. Moreover, the “levels of pain thresholds under different dosing frequency” value in assay [2] (15 mg/kg i.p., qd vs bid) is listed as “dose-related”. In the assay with SNL pain model in rats (i.v. single administration (SEQ ID NO: 29 30 and 60 mg/kg; SEQ ID NO: 90 and 93 60 mg/kg)), the “analgetic effect (50% PWT)” value is “certain analgetic effect”. Also, the “analgetic effect of 60 mg/kg compared with 30 mg/kg (50% PWT)” value in the assay on SNL pain model in rats (i.v. single administration) is “much higher than that produced from the dose of 30 mg SEQ ID NO: 29/kg”.

(Values after US20260022144A1, “ANALGESIC POLYPEPTIDE” (Shanghai Puyou Biomedical Co., Ltd., priority 2022, published 2026).)
